Literature values as cited in patent US20140011241A1, “Method enabling isomerization process flows at lower pH, lower temperature, and in the presence of certain inhibiting compounds by using the xylose isomerase enzyme from the microorganism Fulvimarina pelagi” (priority 2011, published 2014).

Test system: xylose isomerase

B1: xylose isomerase from Thermus thermophilus: xylose isomerase from Thermus thermophilus and mutants derived from it (U.S. Pat. No. 6,475,768) (protein, UniProt P26997 1-387, looked up)
Xylose isomerase: MYEPKPEHRFTFGLWTVGNVGRDPFGDAVRERLDPVYVVHKLAELGAYGVNLHDEDLIPRGTPPQERDQIVRRFKKALDETGLKVPMVTANLFSDPAFKDGAFTSPDPWVRAYALRKSLETMDLGAELGAEIYVVWPGREGAEVEATGKARKVWDWVREALNFMAAYAEDQGYGYRFALEPKPNEPRGDIYFATVGSMLAFIHTLDRPERFGLNPEFAHETMAGLNFVHAVAQALDAGKLFHIDLNDQRMSRFDQDLRFGSENLKAAFFLVDLLESSGYQGPRHFDAHALRTEDEEGVWAFARGCMRTYLILKERAEAFREDPEVKELLAAYYQEDPAALALLGPYSREKAEALKRAELPLEAKRRRGYALERLDQLAVEYLLGVRG
  activity at low temperature: very low
  pH at which active: 6
